Results reported in PMC12441120, “Gephyrin filaments represent the molecular basis of inhibitory postsynaptic densities” (Nature Communications, 2025).

Columns and labels:
[1] = target: full-length wild-type gephyrin (Geph^WT) (human) (UniProt Q9NQX3); assay: SEC; analytical SEC (Superdex 6 increase or Superose 6 increase 10/300 GL) in grid buffer (25 mM Tris pH 7.5, 250 mM NaCl, 25 mM Arg/Glu, 5 mM β-mercaptoethanol, 1.5% sucrose); Geph^WT with a 3-fold excess of GlyR-loop; no filaments seen in SEC
[2] = target: the molecule itself; assay: cell-based or functional assay

stoichiometry N [1]	Molecule	sedimentation assay of in vitro phase separation (LLPS) with GlyR-LD: GephE in the pellet fraction against the sample without GlyR-LD [2] [fold]
3	full-length wild-type gephyrin (Geph^WT) (from UniProt Q9NQX3 1-736) (natural protein)	
	isolated gephyrin E-domain, wild type (GephE^WT, residues 327–736) (domain or fragment, human, UniProt Q9NQX3 327-736, looked up) DKAFITVLEMTPVLGTEIINYRDGMGRVLAQDVYAKDNLPPFPASVKDGYAVRAADGPGDRFIIGESQAGEQPTQTVMPGQVMRVTTGAPIPCGADAVVQVEDTELIRESDDGTEELEVRILVQARPGQDIRPIGHDIKRGECVLAKGTHMGPSEIGLLATVGVTEVEVNKFPVVAVMSTGNELLNPEDDLLPGKIRDSNRSTLLATIQEHGYPTINLGIVGDNPDDLLNALNEGISRADVIITSGGVSMGEKDYLKQVLDIDLHAQIHFGRVFMKPGLPTTFATLDIDGVRKIIFALPGNPVSAVVTCNLFVVPALRKMQGILDPRPTIIKARLSCDVKLDPRPEYHRCILTWHHQEPLPWAQSTGNQMSSRLMSMRSANGLLMLPPKTEQYVELHKGEVVDVMVIGRL	~10
